B2: SpoIIIJ-His6 (natural protein, Bacillus subtilis, UniProt Q01625 23-261, looked up)
chain: CSSVKEPITADSPHFWDKYVVYPLSELITYVAKLTGDNYGLSIILVTILIRLLILPLMIKQLRSSKAMQALQPEMQKLKEKYSSKDQKTQQKLQQETMALFQKHGVNPLAGCFPILIQMPILIGFYHAIMRTQAISEHSFLWFDLGEKDPYYILPIVAGVATFVQQKLMMAGNAQQNPQMAMMLWIMPIMIIVFAINFPAALSLYWVVGNLFMIAQTFLIKGPDIKKNPEPQKAGGKKK
modifications: Cys23 of the lipoprotein-type signal peptide is modified during insertion of the protein into the membrane
notes: SpoIIIJ, membrane protein insertase of the YidC/Oxa1/Alb3 family, Bacillus subtilis; calculated mass 27 kDa; Purified protein is a mixture of monomers and dimers; it also holds proteolytic products starting at L122; also called full-length mature SpoIIIJ-His6; SpoIIIJ^wt-His6; source: E. coli C43(DE3) bearing pMS266, membrane fraction solubilised with 2% DDM, purified (Ni2+-NTA); not shown: His6, …

Assays:
[1] = target: SpoIIIJ^C134A-His6 (Bacillus subtilis) (UniProt Q01625); experiment: SEC; Superose 12 HR 10/30; 20 mM Tris-HCl pH 7.6, 10% glycerol, 0.5 M NaCl, 0.1% DDM, 100 mM imidazole; fractions immunoblotted; peak areas estimated with ImageJ
SpoIIIJ-His6 = target: B2; experiment: SDS-PAGE with or without reducing agent; purified protein in loading buffer with (100 mM) or without DTT; Coomassie staining or immunoblot with anti-His6; bands a and b cut out and run again; conditions: both partners purified
[2] = target: the molecule itself; experiment: SEC; Superose 12 HR 10/30; 20 mM Tris-HCl pH 7.6, 10% glycerol, 0.5 M NaCl, 0.1% DDM, 100 mM imidazole; fractions immunoblotted; peak areas estimated with ImageJ
[3] = target: the molecule itself; experiment: SDS-PAGE with or without reducing agent; purified protein in loading buffer with (100 mM) or without DTT; Coomassie staining or immunoblot with anti-His6; bands a and b cut out and run again

**Q.** “SpoIIIJ^C134A-His6 (from UniProt Q01625 23-261) (natural protein)” was tested. Which ratio of peak areas B (monomer size) to A (dimer size) (peak B : peak A) [1] did it give?
**A.** 0.4

B1: truncated SpoIIIJ-His6 starting at L122 (fragment "c", lacking TM1) (domain or fragment, Bacillus subtilis, UniProt Q01625 122-261, looked up)
chain: LFQKHGVNPLAGCFPILIQMPILIGFYHAIMRTQAISEHSFLWFDLGEKDPYYILPIVAGVATFVQQKLMMAGNAQQNPQMAMMLWIMPIMIIVFAINFPAALSLYWVVGNLFMIAQTFLIKGPDIKKNPEPQKAGGKKK
notes: SpoIIIJ, Bacillus subtilis; about 16 kDa product of cleavage at L122 in the cytoplasmic loop between TM1 and TM2: the rest of that loop to the end of the protein (includes TM2 with Cys134); Two species of about 15 kDa both start at L122; The cause of their different mobility is not known; also called band c; truncated SpoIIIJ monomer (lacking TM1); source: E. coli C43(DE3), proteolytic product …
**Q.** Does B1 bind (SpoIIIJ-His6)?
**A.** binds

**Q.** Which results are given for B2?
**A.** ratio of peak areas B (monomer size) to A (dimer size) [2]: 0.111 peak B : peak A; stoichiometry N [2]: ~2; stoichiometry N [3]: 2

Reference: paper PMC4136701, “A Conserved Cysteine Residue of Bacillus subtilis SpoIIIJ Is Important for Endospore Development” (PLoS ONE, 2014)
